# Where a chain is given by its changes, count along the chain named.
# B1: 105 bp cognate TGAATTC (dsDNA)
# DNA 1: TAAGTTGGGTAACGCCAGGGTTTTCCCAGTCACGACGTTGTAAAACGACGGCCAGTGAATTCGAGCTCGGTACCCGGGGATCCTCTAGAGTCGACCTGCAGGCAT
# DNA 2: ATGCCTGCAGGTCGACTCTAGAGGATCCCCGGGTACCGAGCTCGAATTCACTGGCCGTCGTTTTACAACGTCGTGACTGGGAAAACCCTGGCGTTACCCAACTTA
# B2: 105 bp TGACTTC (third base A to C) (dsDNA)
# DNA 1: B1 DNA 1 with A59C
# DNA 2: B1 DNA 2 with T47G
# B3: 105 bp TGCATTC (second base A to C) (dsDNA)
# DNA 1: B1 DNA 1 with A58C
# DNA 2: B1 DNA 2 with T48G
# B4: 105 bp AGAATTC (5' flank T to A) (dsDNA)
# DNA 1: B1 DNA 1 with T56A
# DNA 2: B1 DNA 2 with A50T
# B5: 105 bp TTAATTC (first base G to T) (dsDNA)
# DNA 1: B1 DNA 1 with G57T
# DNA 2: B1 DNA 2 with C49A
# Biological target: T1, EcoRI restriction endonuclease (UniProt P00642 1-277)
# Experiment: nanopore rupture with qPCR
# T1 sequence (P00642 whole entry): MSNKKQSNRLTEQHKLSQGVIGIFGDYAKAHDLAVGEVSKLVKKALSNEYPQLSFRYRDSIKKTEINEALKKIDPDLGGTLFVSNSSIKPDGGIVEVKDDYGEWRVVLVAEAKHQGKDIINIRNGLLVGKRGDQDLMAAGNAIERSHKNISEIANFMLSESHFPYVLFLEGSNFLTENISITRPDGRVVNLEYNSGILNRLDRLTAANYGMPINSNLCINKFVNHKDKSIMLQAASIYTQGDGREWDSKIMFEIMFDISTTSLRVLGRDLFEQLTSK
row,Binder,binding signal
1,B1,2.16 ± 0.08 V (threshold voltage)
2,B2,1.11 ± 0.08 V (threshold voltage)
3,B3,0.87 ± 0.06 V (threshold voltage)
4,B4,1.62 ± 0.07 V (threshold voltage)
5,B5,1.17 ± 0.09 V (threshold voltage)

# Biological target: T1, EcoRI restriction endonuclease
# Experiment: nanopore rupture with qPCR
# Remark: another data set of the same source
row,Binder,binding signal
1,B1,2.08 ± 0.03 V (threshold voltage)
2,B2,1.08 ± 0.04 V (threshold voltage)
3,B3,0.93 ± 0.05 V (threshold voltage)
4,B4,1.72 ± 0.05 V (threshold voltage)
5,B5,1.18 ± 0.06 V (threshold voltage)

# Biological target: T1, EcoRI restriction endonuclease
# Experiment: nanopore rupture with qPCR
# Remark: another data set of the same source
row,Binder,binding signal
1,B1,2.09 ± 0.06 V (threshold voltage)
2,B2,1.02 ± 0.08 V (threshold voltage)
3,B3,0.93 ± 0.06 V (threshold voltage)
4,B4,1.84 ± 0.05 V (threshold voltage)
5,B5,1.16 ± 0.03 V (threshold voltage)
